Here are results for 1 protein from publication PMC5253651, “Human farnesyl pyrophosphate synthase is allosterically inhibited by its own product” (Nature Communications, 2017).

The data set deals with the molecule itself. The experiment in a line: crystal structure; human FPPS (10 mg/ml) crystallised with 1 mM FPP and 2 mM MgCl2, sitting drop, 22 °C; 1.9 Å; one subunit in the asymmetric unit, biological assembly a homodimer.

B1: Human farnesyl pyrophosphate synthase (enzyme)
chain: MNGDQNSDVYAQEKQDFVQHFSQIVRVLTEDEMGHPEIGDAIARLKEVLEYNAIGGKYNRGLTVVVAFRELVEPRKQDADSLQRAWTVGWCVELLQAFFLVADDIMDSSLTRRGQICWYQKPGVGLDAINDANLLEACIYRLLKLYCREQPYYLNLIELFLQSSYQTEIGQTLDLLTAPQGNVDLVRFTEKRYKSIVKYKTAFYSFYLPIAAAMYMAGIDGEKEHANAKKILLEMGEFFQIQDDYLDLFGDPSVTGKIGTDIQDNKCSWLVVQCLQRATPEQYQILKENYGQKEAEKVARVKALYEELDLPAVFLQYEEDSYSHIMALIEQYAAPLPPAVFLGLARKIYKRRK
notes: Human farnesyl pyrophosphate synthase (FPPS), UniProt P14324 as printed; Crystallised with the small molecule FPP in the allosteric pocket; One subunit in the asymmetric unit; the homodimer arises by crystallographic symmetry; also called FPPS; human FPPS; source: E. coli BL21 (DE3), purified (Ni-nitrilotriacetic acid, Superdex 200 size-exclusion chromatography)
With B1, the binding result was “binds”.
